Experimental data reported in patent publication US20180172683A1 (published 2018).
Ends that are not written are not given here. * marks the point of attachment. Ser‑Gly linker = flexible serine-glycine linker, six amino acids long; Biotin = O=C1N[C@H]2[C@H](CS[C@H]2CCCCC(=O)*)N1

B2: B-cell lymphoma extra-large protein (Bcl-xL), first 209 amino acids with N-terminal avitag (other)
chain: AGGLNDIFEAQKIEWHEGGMSQSNRELVVDFLSYKLSQKGYSWSQFSDVEENRTEAPEGTESEMETPSAINGNPSWHLADSPAVNGATGHSSSLDAREVIPMAAVKQALREAGDEFELRYRRAFSDLTSQLHITPGTAYQSFEQVVNELFRDGVNWGRIVAFFSFGGALCVESVDKEMQVLVSRIAAWMATYLNDHLEPWIQENGGWDTFVELYGNNAAAESRKGQER
modifications: biotin on the avitag (BirA biotin ligase); a non-biotinylated form was used as the excess competitor in solution in the off-rate assays
notes: range 1-209; Expressed in E. coli BL21(DE3); Used in solution (forward assays) or immobilized through biotin on streptavidin plates or beads (reverse assay, off-rate and HTSK experiments); not shown: His tag implied (pET24a NdeI/XhoI, Ni-NTA purification, anti-HIS probe)

Experiments:
[1] = molecular target: B2; test: radiolabeled HA-tagged peptide off-rate from immobilized Bcl-xL
Experimental: (§1) The radiolabeled peptides were allowed to bind to 30 pmol immobilized Bcl-xL for 1 hour in sample buffer (1×PBS, 1% (w/v) BSA, 0.1% (v/v) Tween 20, 10 μM biotin). The beads were magnetically separated, and washed 5× with sample buffer. The beads were resuspended in 1 mL of sample buffer containing 3 μM non-biotinylated Bcl-xL (˜100× molar excess relative to immobilized biotinylated Bcl-xL). At various time points, 100 μL of slurry was removed and the beads were magnetically separated and washed. The percent remaining at each time point was determined by dividing the counts per minute (cpm) on beads by total cpm (beads+washes). The peptide off-rate was determined by an exponential fit of the Percent counts on beads vs. Time (s).
The peptide ligands were made using a C-terminal HA tag, and affinity purified.

[2] = molecular target: B2; test: dissociation of radiolabeled construct from immobilized Bcl-xL with excess Bcl-xL in solution
Experimental: as §1
(§2) The Kd for the peptides is measured by the equilibrium ELISA/AAMP assays (Table 1). The off-rate for these peptides was obtained by measuring the dissociation rate for radiolabeled peptide-mRNA fusions bound to immobilized Bcl-xL. The on-rate was calculated based on the equilibrium Kd measurements and the radiolabeled off-rate.

[3] = molecular target: T1, Bim peptide (synthetic 26-residue fragment of Bim, biotin-labeled) (C-terminal amide; biotin on the side chain of the C-terminal Lys); test: equilibrium AMMP, monovalent model
Experimental: (§3) AMMP Assays. For the AMMP assays, 90 μL of each sample or standards was incubated with 30 μL of magnetic beads (12 μg of beads/mL) and fluorescein-labeled antibody (8 nM) in sample buffer for 1 hour. The experiment's run buffer was 1×PBS+1% (v/v) Tween-20+1% (v/v) heat-treated FBS (Invitrogen; FBS was heat treated for 15 minutes at 65° C. and filtered). BioScale Universal Detection Cartridges were used in performing all of the assays. The device was used per the manufacturer's instructions. The ligand of interest, capture ligand, target protein, and probe ligand used in example AMMP assays performed are highlighted in the table below.
(§4) A competing ligand of unknown Kd was incubated with the target and allowed to equilibrate. The target protein bound to the competing ligand is not anchored to the magnetic beads. Subsequent wash steps thereby […]. The Kd of interaction between the target protein and the competing ligand can then be determined by quantifying the amount of free target in solution.

[4] = molecular target: T1, Bim peptide (synthetic 26-residue …); test: equilibrium ELISA, monovalent model
Experimental: (§5) After the capture ligand incubation, 100 μL of sample or standards were added in each well, and incubated for 1 hour at room temperature. Plates were washed, incubated with HRP-conjugated probe antibody (such as anti-HIS tag antibody) in sample buffer for 1 hour, washed, and incubated with TMB substrate (Thermo Scientific). Reactions were stopped after approximately 10 minutes with 2 M sulfuric acid, and the absorbance at 450 nm was measured via a plate reader (Molecular Devices). The ligand of interest, capture ligand, target protein, and probe ligand used in example ELISA assays performed are highlighted in the table below.
(§6) Enzymatic Kd Calculation Assay. The Kd values of ligands of interest were determined using a protocol modified from Friguet et al., Journal of immunological methods, 77, 305-319 (1985). The samples were prepared and analyzed by ELISA assay in a similar process as described above. The OD450 for the standards and their concentration values were fit to a four parameter logistic curve (standard curve). The concentration of the free Bcl-xL in solution (responsible for the signal) for each sample was calculated using the standard curve, and converted into percent of Bcl-xL bound by ligand in solution. For each ligand, the values for all the tested concentration of Bcl-xL and peptide in solution were fit simultaneously to the monovalent equilibrium model below to obtain the dissociation constant Kd (in which [C]EQ, [T]₀, [L]₀ represent the concentration of the target-ligand complex at equilibrium, the initial concentration of the target protein, and the initial concentration of the ligand, respectively).
(§7) The equilibrium assay is a modified version of the method described by Friguet et al., supra. The samples were prepared and analyzed by ELISA assay in a similar process as described above.

[5] = molecular target: T1, Bim peptide (synthetic 26-residue …); test: equilibrium ELISA and AMMP, monovalent model, Kd and [L]0 fit simultaneously
[6] = molecular target: B2; test: equilibrium AMMP, monovalent model
Experimental: as §3, §4

[7] = molecular target: B2; test: equilibrium ELISA, monovalent model
Experimental: as §5, §6, §7

[8] = molecular target: B2; test: equilibrium ELISA/AMMP (value of Table 1 given again)
[9] = molecular target: B2; test: equilibrium ELISA and AMMP, monovalent model, known [L]0
[10] = molecular target: B2; test: calculated from the equilibrium Kd and the radiolabeled off-rate
Experimental: as §2

[11] = molecular target: B2; test: equilibrium ELISA and AMMP, monovalent model, Kd and [L]0 fit simultaneously
[12] = molecular target: B2; test: binding (equilibrium ELISA) Kd
Experimental: as §5, with “ELISA Assays. […] Plates were washed 3× with wash buffer (1×PBS+0.1% (v/v) Tween-20) and blocked with 1×PBS+5% (w/v) BSA for two hours. […] After” for “After”
Enzymatic Kd Calculation Assay. The Kd values of ligands of interest were determined using a protocol modified from Friguet et al., Journal of immunological methods, 77, 305-319 (1985). The samples were prepared and analyzed by ELISA assay in a similar process as described above. The OD450 for the standards and their concentration values were fit to a four parameter logistic curve (standard curve). The concentration of the free Bcl-xL in solution (responsible for the signal) for each sample was calculated using the standard curve, and converted into percent of Bcl-xL bound by ligand in solution. […]

T1 sequence (peptide, as listed by the source): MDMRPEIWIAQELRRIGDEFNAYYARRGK

B1: E1, radiolabeled in vitro translated peptide with C-terminal serine-glycine linker and HA tag (peptide)
peptide: MIETITIYNYKKAADHFSMSM-{Ser‑Gly linker-HA tag}
modifications: also: 35S-labeled methionine
notes: not shown: flexible serine-glycine linker, six amino acids long; HA tag
B1 gave a koff [1] of 7.4e-06 s⁻¹ and a koff [2] of 1.2e-05 s⁻¹.

B2 was tested, and the Kd [3] was 0.077 nM, the Kd [4] was 0.17 nM and the Kd [5] was 0.15 nM.

B3: Peptide E2 (synthetic, biotin-labeled) (peptide)
peptide: MIETITIYKYKKAADHFSMSMGSK(Biotin)-NH2
modifications: N-terminus assumed
SMILES: CC[C@H](C)[C@H](NC(=O)[C@@H](NC(=O)[C@@H](NC(=O)[C@@H](NC(=O)[C@H](CCC(=O)O)NC(=O)[C@@H](NC(=O)[C@@H](N)CCSC)[C@@H](C)CC)[C@@H](C)O)[C@@H](C)CC)[C@@H](C)O)C(=O)N[C@@H](Cc1ccc(O)cc1)C(=O)N[C@@H](CCCCN)C(=O)N[C@@H](Cc1ccc(O)cc1)C(=O)N[C@@H](CCCCN)C(=O)N[C@@H](CCCCN)C(=O)N[C@@H](C)C(=O)N[C@@H](C)C(=O)N[C@@H](CC(=O)O)C(=O)N[C@@H](Cc1c[nH]cn1)C(=O)N[C@@H](Cc1ccccc1)C(=O)N[C@@H](CO)C(=O)N[C@@H](CCSC)C(=O)N[C@@H](CO)C(=O)N[C@@H](CCSC)C(=O)NCC(=O)N[C@@H](CO)C(=O)N[C@@H](CCCCNC(=O)CCCC[C@@H]1SC[C@@H]2NC(=O)N[C@@H]21)C(N)=O
notes: Solid phase Fmoc synthesis; also called E2 Pep
B3 was tested, and the Kd [6] was 0.315 nM, the Kd [7] was 0.29 nM and the Kd [8] was 0.3 nM. It also gave a Kd [9] of 0.3 nM, a kon [10] of 53000 M⁻¹ s⁻¹ and a Kd [11] of 0.24 nM.

B4: Peptide E1 (synthetic, biotin-labeled) (peptide)
peptide: MIETITIYNYKKAADHFSMSMGSK(Biotin)-NH2
modifications: N-terminus assumed
SMILES: CC[C@H](C)[C@H](NC(=O)[C@@H](NC(=O)[C@@H](NC(=O)[C@@H](NC(=O)[C@H](CCC(=O)O)NC(=O)[C@@H](NC(=O)[C@@H](N)CCSC)[C@@H](C)CC)[C@@H](C)O)[C@@H](C)CC)[C@@H](C)O)C(=O)N[C@@H](Cc1ccc(O)cc1)C(=O)N[C@@H](CC(N)=O)C(=O)N[C@@H](Cc1ccc(O)cc1)C(=O)N[C@@H](CCCCN)C(=O)N[C@@H](CCCCN)C(=O)N[C@@H](C)C(=O)N[C@@H](C)C(=O)N[C@@H](CC(=O)O)C(=O)N[C@@H](Cc1c[nH]cn1)C(=O)N[C@@H](Cc1ccccc1)C(=O)N[C@@H](CO)C(=O)N[C@@H](CCSC)C(=O)N[C@@H](CO)C(=O)N[C@@H](CCSC)C(=O)NCC(=O)N[C@@H](CO)C(=O)N[C@@H](CCCCNC(=O)CCCC[C@@H]1SC[C@@H]2NC(=O)N[C@@H]21)C(N)=O
notes: Solid phase Fmoc synthesis; also called E1 Pep
B4 showed a Kd [12] of 0.039 nM, a Kd [6] of 0.045 nM and a Kd [7] of 0.034 nM. It also gave a Kd [8] of 0.039 nM, a Kd [9] of 0.039 nM and a kon [10] of 310000 M⁻¹ s⁻¹. The Kd [11] was 0.027 nM.

B5: Peptide D1 (synthetic, biotin-labeled) (peptide)
peptide: MIAISTIYNYKKAADHYAMTKGSK(Biotin)-NH2
modifications: N-terminus assumed
SMILES: CC[C@H](C)[C@H](NC(=O)[C@H](C)NC(=O)[C@@H](NC(=O)[C@@H](N)CCSC)[C@@H](C)CC)C(=O)N[C@@H](CO)C(=O)N[C@H](C(=O)N[C@H](C(=O)N[C@@H](Cc1ccc(O)cc1)C(=O)N[C@@H](CC(N)=O)C(=O)N[C@@H](Cc1ccc(O)cc1)C(=O)N[C@@H](CCCCN)C(=O)N[C@@H](CCCCN)C(=O)N[C@@H](C)C(=O)N[C@@H](C)C(=O)N[C@@H](CC(=O)O)C(=O)N[C@@H](Cc1c[nH]cn1)C(=O)N[C@@H](Cc1ccc(O)cc1)C(=O)N[C@@H](C)C(=O)N[C@@H](CCSC)C(=O)N[C@H](C(=O)N[C@@H](CCCCN)C(=O)NCC(=O)N[C@@H](CO)C(=O)N[C@@H](CCCCNC(=O)CCCC[C@@H]1SC[C@@H]2NC(=O)N[C@@H]21)C(N)=O)[C@@H](C)O)[C@@H](C)CC)[C@@H](C)O
notes: Solid phase Fmoc synthesis; Also the capture ligand of the forward assays for peptide ligands; also called D1 Pep; D1 Peptide
B5 gave a Kd [12] of 0.009 nM, a Kd [6] of 0.012 nM and a Kd [7] of 0.007 nM. It also gave a Kd [8] of 0.0085 nM, a Kd [9] of 0.0085 nM and a kon [10] of 240000 M⁻¹ s⁻¹. It also gave a Kd [11] of 0.014 nM.

B6: D1, radiolabeled in vitro translated peptide with C-terminal serine-glycine linker and HA tag (peptide)
peptide: MIAISTIYNYKKAADHYAMTK-{Ser‑Gly linker-HA tag}
modifications: also: 35S-labeled methionine
notes: as for B1
Binder B6 has a koff [1] of 2e-06 s⁻¹ and a koff [2] of 2e-06 s⁻¹.

B7: E2, radiolabeled in vitro translated construct used for the off-rate of Table 3 (peptide, not shown: small tags and cut ends)
peptide: MIETITIYKYKKAADHFSMSMGSK
modifications: also: 35S-labeled methionine, C-terminal extension: Ser-Gly linker and HA tag, or mRNA fusion
For B7, the koff [2] was 1.6e-05 s⁻¹.
